Consider 14 substances from publication PMC13181761, “New Analogs of the Compstatin Family of Clinical Complement Inhibitors with Low Picomolar Target Affinity” (Journal of Medicinal Chemistry, 2026).

Assay [1] deals with human C3b (human) (UniProt P01024). In words: SPR; Biacore T200; human C3b amine-coupled; multicycle kinetics, serial 2-fold dilutions of peptide, 120 s injection, 180 s dissociation, regeneration 1 M NaCl; 25 °C, HBST pH 7.4; Langmuir 1:1 fit, KD = kd/ka; mean of 3 experiments.
The target is the same in assay [2]. Briefly: SPR; Biacore T200; human C3b amine-coupled; 25 °C, HBST pH 7.4; KD determined as steady state affinity.
For assay [3] the target is unchanged.
For assay [4] the target is unchanged. Briefly: SPR; Biacore T200; human C3b amine-coupled; single-cycle kinetics, 5 increasing concentrations (0.5-40 nM), final dissociation 100-240 min; 25 °C, HBST pH 7.4; global Langmuir 1:1 fit; mean of 3 experiments.
Assay [5] shares this target. The source holds these as a separate data set.

In assay [1], Cp01 Arg11Lys analog (peptide) registered an equilibrium dissociation constant (Kd) of 502 nM, a koff of 0.15 s⁻¹ and a kon of 300000 M⁻¹ s⁻¹.
Taken in the same sequence, the figures for Cp01 Arg11Ser analog (peptide) were 529 nM, 0.16 s⁻¹ and 330000 M⁻¹ s⁻¹.
In assay [1], Cp01 Asp6Asn analog (peptide) showed an equilibrium dissociation constant (Kd) of 219 nM, a koff of 0.11 s⁻¹ and an on-rate (kon) of 540000 M⁻¹ s⁻¹.
On the same counts, the results for Cp01 Asp6Glu analog (peptide) are 528 nM, 0.18 s⁻¹ and 380000 M⁻¹ s⁻¹.
With Cp01 Asp6Ser analog (peptide), in assay [1], the Kd was determined as 609 nM, the koff worked out at 0.18 s⁻¹ and the kon worked out at 310000 M⁻¹ s⁻¹.
Take Cp01 Val3Leu analog (peptide): in assay [1], the dissociation constant (Kd) was determined as 552 nM, the koff is 0.11 s⁻¹ and the kon was determined as 200000 M⁻¹ s⁻¹.
Regarding Cp01 aIle3 analog (peptide), the Kd in assay [2] was 545 nM.
In assay [1], Cp01-V3I (peptide) came in with a Kd of 19.8 nM, a koff of 0.017 s⁻¹ and an on-rate constant (kon) of 880000 M⁻¹ s⁻¹. Further, in assay [3], the IC50 of inhibition of alternative pathway complement activation (AP ELISA, diluted normal human serum; the target in serum is C3) was 200 nM and the IC50 of inhibition of classical pathway complement activation (CP ELISA, diluted normal human serum; the target in serum is C3) was 430 nM.
With Cp05 Ile3 analog (peptide), in assay [1], the Kd came to 1.5 nM, the koff came out at 0.002 s⁻¹ and the on-rate (kon) came out at 1.14e+06 M⁻¹ s⁻¹.
In assay [4], Cp40 aIle3 analog (peptide) yielded a dissociation constant Kd of 15.6 nM, a dissociation rate constant (koff) of 0.007 s⁻¹ and a kon of 460000 M⁻¹ s⁻¹.
In assay [3], compstatin analog Cp01 (peptide) came in with an IC50 of inhibition of alternative pathway complement activation (AP ELISA, diluted normal human serum; the target in serum is C3) of 1400 nM and an IC50 of inhibition of classical pathway complement activation (CP ELISA, diluted normal human serum; the target in serum is C3) of 20000 nM.
With compstatin analog Cp05 (peptide), in assay [1], the Kd worked out at 46.8 nM, the koff was found to be 0.014 s⁻¹ and the kon amounted to 300000 M⁻¹ s⁻¹.
As to compstatin analog Cp40 (peptide), in assay [4], the dissociation constant (Kd) was found to be 0.7 nM, the koff came out at 0.001 s⁻¹ and the on-rate constant (kon) turned out to be 1.76e+06 M⁻¹ s⁻¹. Also, the IC50 of inhibition of classical pathway complement activation (CP ELISA, 5% human serum) in assay [5] was 158 nM.
As for compstatin analog Cp60 (peptide), in assay [4], the equilibrium dissociation constant (Kd) came out at 0.08 nM, the off-rate (koff) stood at 0.0001 s⁻¹, the kon came out at 1.76e+06 M⁻¹ s⁻¹ and the target residence is more than 100 min. This substance also came in with an IC50 of inhibition of classical pathway complement activation (CP ELISA, 5% human serum) in assay [5] of 97 nM.
